The results in this text go back to patent publication US20060150268A1, “Plant-derived transferase genes” (priority 2002, published 2006).

Data set [1] concerns leaves of Nicotiana benthamiana. Description: Transient expression of HQT in leaves of Nicotiana benthamiana. In kind it is in vivo. Particulars: for HQT enzyme activity in leaves: plants expressing HQT under the control of the 35S promoter (FIG. 6); for amount of chlorogenic acid in vivo in plants: plants expressing HQT under the control of the 35S promoter, HPLC after 4 days (FIG. 6). As to the method: Leaves were infiltrated with Agrobacterium tumefaciens C58C1 transformed with the plasmid pGFP, which contains the cDNA encoding GFP under control of the 35S promoter, along with bacteria transformed with either the plasmid p19 which carries a cDNA encoding a gene-silencing protein or the control plasmid pBIN19.
Soluble phenolics were extracted by vortexing 30 mg of frozen, powdered leaf material in 300 μl of 70% methanol. After addition of 100 μl distilled water, the extract was vortexed again and then spun for 10 sec at 13,000 g to pellet the debris. The supernatant was analysed by gradient HPLC (apparatus from Spectra Physics, San Jose, Calif.) using a Columbus 5-μm C18 column (25 cm×4.6 mm; Phenomenex, Macclesfiled, Cheshire, UK). Solvent A was 1 mM trifluoroacetic acid, solvent B was acetonitrile, and the gradient was run for 65 min at flow rate of 1 ml min^−1 with the following concentrations: 0 min :100% A, 0% B; 50 min: 60% A, 40% B; 60 min: 30% A, 70% B; 65 min: 100% A, 0% B. The column eluant was monitored using a Spctra Fous scanning detector (Spectra Physics). A chlorogenic acid standard (Sigma) was used to quantify the amount of chlorogenic acid in the leaf extracts.
After the transfer of the overexpression constructs pTom and pTob, and the iRNA constructs pFRNtom and pFRN-tob to Agrobacterium tumefaciens C58C1 (DEBLAERE et al., 1985) single colonies were used for growing 50 mL overnight cultures. Additional 50 ml overnight cultures of Agrobacterium tumefaciens C58C1 containing expression constructs of the green fluorescent protein (PGFP) or the gene silencing inhibitor protein 19 (p19; kindly provided by O. Vionnet) or the empty binary vectors pBIN19 and pFRN were also grown. The cells were precipitated by centrifugation at 4000 g for 20 min and resuspended in 50 ml 10 mM MgCl2. After addition of 50 μl 100 mM acetosyringene the cells were incubated at room temperature overnight. To overexpress HQT similar amounts of the cultures containing pGFP, pTom, pTob were mixed with the same volume of cultures containing either pBIN19 or p19 and each mixture was used to infiltrate three leaves of a Nicotiana benthamiana plant. […] For gene silencing the cultures containing pFRN-tom, pFRN-tob and pFRN were used to infiltrate three leaves of Nicotiana benthamiana.

The test system of data set [2] is HQT enzyme activity (caffeoyl CoA and quinic acid as substrates). The data set is described as follows: HQT enzyme assay with crude extracts from E. coli expressing the recombinant protein. In kind it is biochemical, Escherichia coli. Particulars: recombinant protein expressed in E. coli, decrease of caffeoyl-CoA measured spectrophotometrically (FIG. 5). As to the method:
As described above, HQT catalyses the production of chlorogenic acid via transfer of the caffeoyl moiety of caffeoyl-CoA to quinic acid. Such activity can be assessed, for example, using the assay described in Example 2. Briefly, the assay uses caffeoyl CoA and quinic acid as substrates, and the rate of conversion of caffeoyl CoA to chlorogenic acid is determined by spectrophotometry.
The reaction was initiated by adding the substrate quinic acid and the enzyme activity was measured spectrophotometrically as decrease of the amount of caffeoyl-CoA.
The enzyme activity was determined by spectrophotometry at 30° C. The reaction mixture contained in a total volume of 1 ml: 100 mM Na-Pi buffer pH 7.0, 1 mM EDTA, 16.8 μM caffeoyl CoA and 10-50 μl protein extract. […] The extinction coefficient for caffeoyl CoA is 1.8×10^4 M^−1 cm^−1 (ZENK et al., 1980). The synthesis of caffeoyl CoA was carried out as described previously (SEMLER et al., 1987).
The full-length cDNA of HQT from tomato was subcloned in frame into the NcoI and BamHI-sites of the expression vector pSTAG under the control of the T7 RNA-Polymerase promoter. This strategy led to the introduction of a sequence encoding an S-TAG at the 5′-end of the cDNA. According to procedures provided by the manufacturer (Novagen), the expression and purification of the fusion protein was carried out using the S-TAG™ Thrombin Purification Kit. The enzyme activity of the purified protein was then analysed in HQT enzyme assays.

B1: tobHQT: hydroxycinnamoyl-CoA quinate hydroxycinnamoyl transferase from tobacco, 436 amino acids, SEQ ID NO 2 (protein, listed as Nicotiana tabacum)
chain: MGSEKMMKINIKESTLVKPSKPTPTKRLWSSNLDLIVGRIHLLTVYFYKPNGSSNFFDSKIMKEALSNVLVSFYPMAGRLARDEQGRIEINCNGEGVLFVEAESDAFVDDFGDFTPSLELRKLIPTVDTSGDISTFPLIIFQVTRFKCGGVSLGGGVFHTLSDGLSSIHFINTWSDIARGLSVAIPPFIDRTLLRARDPPTSSFEHVEYHPPPSLISSSKSLESTSPKPSTTTMLKFSSDQLGLLKSKSKHDGSTYEILAAHIWRCTCKARALSDDQLTKLHVATDGRSRLCPPLPPGYLGNVVFTGTPMAKSSELLQEPLTNSAKRIHSALSKMDDNYLRSALDYLELLPDLSALIRGPTYFASPNLNINSWTRLPVHDSDFGWGRPIHMGPACILYEGTVYILPSPNSKDRNLRLAVCLDADHMPLFEKYLYEF
Regarding B1, in data set [1], the “HQT enzyme activity in leaves” value is “Increased HQT enzyme activity” and the “amount of chlorogenic acid in vivo in plants” value stood at 2 fold.

B2: hsr201: tobacco hypersensitive response protein 201, a member of the transferase family (protein, UniProt Q8GT20 1-460, looked up)
Benzyl alcohol …: MDSKQSSELVFTVRRQKPELIAPAKPTPREIKFLSDIDDQEGLRFQIPVIQFYHKDSSMGRKDPVKVIKKAIAETLVFYYPFAGRLREGNGRKLMVDCTGEGIMFVEADADVTLEQFGDELQPPFPCLEELLYDVPDSAGVLNCPLLLIQVTRLRCGGFIFALRLNHTMSDAPGLVQFMTAVGEMARGASAPSILPVWCRELLNARNPPQVTCTHHEYDEVRDTKGTIIPLDDMVHKSFFFGPSEVSALRRFVPHHLRKCSTFELLTAVLWRCRTMSLKPDPEEEVRALCIVNARSRFNPPLPTGYYGNAFAFPVAVTTAAKLSKNPLGYALELVKKTKSDVTEEYMKSVADLMVLKGRPHFTVVRTFLVSDVTRGGFGEVDFGWGKAVYGGPAKGGVGAIPGVASFYIPFKNKKGENGIVVPICLPGFAMETFVKELDGMLKVDAPLDNSNYAIIRPAL
As to B2, the results for the HQT enzyme activity result in data set [2] and in data set [2] (listed as Hsr201) were “no enzyme activity was detected” and “no HQT enzyme activity”, respectively.

B3: tomHQT: hydroxycinnamoyl-CoA quinate hydroxycinnamoyl transferase from tomato, 430 amino acids, SEQ ID NO 1 (protein, listed as Lycopersicon esculentum)
chain: MGSEKMMKINIKESTLVKPSKPTPTKRIWSSNLDLIVGRIHLLTVYFYKPNGSSNFFDNKVIKEALSNVLVSFYPMAGRLGRDEQGRIEVNCNGEGVLFVEAESDSCVDDFGDFTPSLELRKLIPSVETSGDISTFPLVIFQITRFKCGGVALGGGVFHTLSDGLSSIHFINTWSDIARGLSVAVPPFIDRTLLRARDPPTYSFEHVEYHPPPTLNSSKNRESSTTTMLKFSSEQLGLLKSKSKNEGSTYEILAAHIWRCTCKARGLPEDQLTKLHVATDGRSRLCPPLPPGYLGNVVFTATPIAKSCELQSEPLTNSVKRIHNELIKMDDNYLRSALDYLELQPDLSTLIRGPAYFASPNLNINSWTRLPVHECDFGWGRPIHMGPACILYEGTIYIIPSPNSKDRNLRLAVCLDAGHMSLFEKYLYEL
B3: in data set [1], the “HQT enzyme activity in leaves” value is on record as “Increased HQT enzyme activity” and the “amount of chlorogenic acid in vivo in plants” value was 2 fold. Further, the HQT enzyme activity result in data set [2] is “showed HQT enzyme activity”.
